# Tests used:
# [1] = biological target: T1, wild-type HIV-1 capsid protein (WT CA) (HIV-1 (pLAI.2), UniProt P03348 133-363, biotin (EZ-link Sulfo-NHS-LC-LC-biotin, 1 biotin per molecule) in the SPR only); assay: SPR; Biacore T100; minimally biotinylated WT CA or CA 4Mu hexamer captured on neutravidin on CM5 chips, CAI injected (100 µM and 3-fold dilutions); 50 mM sodium phosphate pH 7.5, 150 mM NaCl, 0.01% P20; steady-state one-site fit; settings: both partners purified
# T1 construct: HIV-1 capsid protein (CA), the 231 residues of wild-type CA amplified from the infectious HIV-1 cDNA plasmid pLAI.2; The 5' primer added a codon for an N-terminal methionine; untagged (pET30a NdeI/XhoI, stop codon); also called CA FL; full-length wild-type capsid protein; source: E. coli BL21(DE3), purified (ammonium sulfate cut, two rounds of polymerization/depolymerization, Q-HP flow-through); …
# [2] = biological target: T1, wild-type HIV-1 capsid protein (WT CA); assay: turbidity (absorbance at 350 nm) polymerization assay with inhibitor; 40 µM WT CA pre-incubated with inhibitor (2-fold serial dilution from 20 µM final for CAI-4), 50 mM sodium phosphate pH 7.5, 2 M NaCl, 0.005% Antifoam 204, 1% DMSO, 25°C; IC50 from initial rates; settings: both partners purified
Binder,Kd [1],IC50 [2]
"ITFEDLLDYYGP (source: synthetic peptide, bought: AnaSpec Inc) [CAI peptide]",1.38 µM,
"ITFEDLLDYYK (variant of CAI peptide with a lysine residue replacing the last two C-terminal amino acids; source: synthetic peptide, bought: AnaSpec Inc) [CAI-4 peptide]",,4.7 ± 0.9 µM

# From publication PMC3589475, “Large-Scale Functional Purification of Recombinant HIV-1 Capsid” (PLoS ONE, 2013)
